Target: fap24_human FAAP24 (UniProt Q9BTP7)
UniProt Q9BTP7, sequence (Q9BTP7 whole entry): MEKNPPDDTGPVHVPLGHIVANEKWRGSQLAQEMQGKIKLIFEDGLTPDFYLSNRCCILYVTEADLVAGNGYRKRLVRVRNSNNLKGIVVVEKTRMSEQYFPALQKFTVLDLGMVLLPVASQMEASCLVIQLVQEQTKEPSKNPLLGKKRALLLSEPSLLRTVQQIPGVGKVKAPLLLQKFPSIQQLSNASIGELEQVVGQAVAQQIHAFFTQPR

- effect of a mutation on the interaction: with no effect
Substance: Fanconi anemia group M protein (Homo sapiens), Q8IYD8 K117R

Reference: IntAct's records for PubMed 17289582
